This test has as its target fetuin. The test is described as follows: ELISA on coated fetuin, OS-PT at 20 µg/ml, detection with anti-PT serum. Background: In an ELISA, binding on a coated surface is turned into a signal by an enzyme label.

“OS-PT conjugate: B. pertussis 186 LOS-derived oligosaccharide coupled to pertussis toxin by reductive amination (oligosaccharide content not specified at the place) (from UniProt P04977 35-269; P04978 28-226; P04979 29-227; P0A3R5 43-152; P04981 35-133)”: the absorbance at A405 nm came out at 0.117 A405 nm.

Values taken from US9878051.
